This passage reports IC50 and stoichiometry N (PARP10-Dock per C8 scaffold) results from article PMC9574550, “Protein engineering approach to enhance activity assays of mono-ADP-ribosyltransferases through proximity” (Protein Engineering, Design and Selection, 2022).

Test [1] addresses T1, PARP16 (Homo sapiens, UniProt Q8N5Y8).
T1 construct: catalytic fragment, MBP-PARP16-Dockerin (PARP16-Dock) on C8 scaffold
T1 sequence (Q8N5Y8 94-279 limits assumed): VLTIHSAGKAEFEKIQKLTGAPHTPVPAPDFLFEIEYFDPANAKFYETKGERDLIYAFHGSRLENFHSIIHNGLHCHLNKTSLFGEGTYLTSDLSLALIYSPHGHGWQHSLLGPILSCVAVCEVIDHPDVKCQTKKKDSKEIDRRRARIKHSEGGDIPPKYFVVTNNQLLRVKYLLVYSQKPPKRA
Put plainly: homogeneous NAD+ conversion assay, dose-response. Format: biochemical.

Test [2] deals with C8 scaffold (eight tandem repeats of H. thermocellum CipA cohesin 1) (Hungateiclostridium thermocellum) (UniProt Q06851). In words: SEC-MALS; 35 μM enzyme mixed with C8 scaffold in SEC buffer with 2 mM CaCl2, S200 Increase 10/300; apparent excess of PARP10-Dock (limited C8 scaffold). In general terms: Size exclusion chromatography separates by hydrodynamic size, large species first.

Test [3] shares this target. In words: SEC-MALS; 35 μM enzyme mixed with C8 scaffold in SEC buffer with 2 mM CaCl2, S200 Increase 10/300; ratio that resulted in no visible unbound PARP10-Dock (saturating conditions).

The compound `CN(C)CC(=O)Nc1ccc2[nH]c(=O)c3ccccc3c2c1` [PJ34] displayed an IC50 in test [1] of 38 µM.
For the compound “PARP10-Dock (MBP-PARP10 catalytic fragment-Cel48S dockerin) (from UniProt A3DH67 673-739) (enzyme)”, the stoichiometry N (PARP10-Dock per C8 scaffold) in test [2] was below 8; in test [3], 7.

A word on the IC50: it is the midpoint of a concentration-inhibition curve. A high value points to lower potency.
